# The supplement of paper PMC7877785
# ± gives the uncertainty stated by the source.
# Assay: self-splicing fitness, log relative to wild type (ln ratio); higher = more splicing; Tetrahymena group I intron in knt gene, E. coli kanamycin selection, DiMSum; sequences stand for … in CUCUCU…GGAGGGAAAAGUUAUCAGGCAUGCACCUGGUAGCUAGUCUUUAAACCAAUAGAUUGCAUCGGUUUAAAAGGCAAGACCGUCAAAUUGCGGGAAAGGGGUCAACAGCCGUUCAGUACCAAGUCUCAGGGGAAACUUUGAGAUGGCCUUGCAAAGGGUAUGGUAAUAAGCUGACGGACAUGGUCCUAACCACGCAGCCAAGUCCUAAGUCAACAGAUCUUCUGUUGAUAUGGAUGCAGUUCACAGACUAAAUGUCGGUCGGGGAAGAUGUAUUCUUCUCAUAAGAUAUAGUCGGACCUCUCCUUAAUGGGAGCUAGCGGAUGAAGUGAUGCAACACUGGAGCCGCUGGGAACUAAUUUGUAUGCGAAAGUAUAUUGAUUAGUUUUGGAGUACUCGUGGUCG
# Summary of the method: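 Pooled colonies went to amplicon sequencing on an Illumina HiSeq 2500 after six replicate transformations. The plates were LB agar with 100 μg/mL carbenicillin, 50 μM IPTG and 0.2% rhamnose, with or without 25 μg/mL kanamycin, incubated overnight at 37°C or 30°C. The E. coli BL21(DE3) library had all eight P1ex-region intron nucleotides randomised, the intron placed in the knt kanamycin-resistance gene on pET-22b(+). DiMSum fitness is the error-weighted combination of replicate fold changes, kanamycin against none, normalised to wild type.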
Sequence,self-splicing fitness (ln) (30 °C),self-splicing fitness (ln) (37 °C)
CAUUAGCAAUAUUACGCCGU,-2.04 ± 0.15,-1.84 ± 0.21
CAUUAGCAAUAUUACGCGAG,-1.52 ± 0.11,-0.923 ± 0.095
CAUUAGCAAUAUUACGGCGU,-2.25 ± 0.13,-0.905 ± 0.13
CAUUAGCAAUAUUACGGCUA,-2.88 ± 0.29,-1.47 ± 0.15
CAUUAGCAAUAUUACGGUGC,-4.19 ± 0.31,-2.34 ± 0.3
CAUUAGCAAUAUUACGUACC,-3.96 ± 0.21,-1.28 ± 0.13
CAUUAGCAAUAUUACGUCUA,-2.74 ± 0.17,-2.2 ± 0.17
CAUUAGCAAUAUUACGUUGA,-3.86 ± 0.37,-2.65 ± 0.34
CAUUAGCAAUAUUACGUUUG,-2.16 ± 0.1,-1.51 ± 0.13
CCAAAGCAAUAUUACGAACG,0.08 ± 0.054,-0.168 ± 0.071
CCAAAGCAAUAUUACGAAUG,-1.03 ± 0.07,-0.166 ± 0.092
CCAAAGCAAUAUUACGAGAG,-2.24 ± 0.23,-1.91 ± 0.2
CCAAAGCAAUAUUACGAUCC,-3.73 ± 0.31,–
CCAAAGCAAUAUUACGAUGA,-2.55 ± 0.12,-1.34 ± 0.09
CCAAAGCAAUAUUACGAUUG,-1.36 ± 0.06,-0.695 ± 0.081
CCAAAGCAAUAUUACGCACU,-2.09 ± 0.19,-2.75 ± 0.23
CCAAAGCAAUAUUACGCAGG,-3.23 ± 0.15,-3.74 ± 0.27
CCAAAGCAAUAUUACGCAUU,-3.34 ± 0.26,-3.55 ± 0.46
CCAAAGCAAUAUUACGCGAA,-2.8 ± 0.44,-2.5 ± 0.28
CCAAAGCAAUAUUACGCUGU,-3.89 ± 0.14,-2.69 ± 0.15
CCAAAGCAAUAUUACGGACG,-0.4 ± 0.064,0.287 ± 0.091
CCAAAGCAAUAUUACGGCUU,-4.45 ± 0.21,-2.32 ± 0.14
CCAAAGCAAUAUUACGGUUA,-2.46 ± 0.12,-2.48 ± 0.14
CCAAAGCAAUAUUACGGUUG,-1.18 ± 0.062,-0.628 ± 0.074

Sequence,self-splicing fitness (ln) (30 °C),self-splicing fitness (ln) (37 °C)
CCAAAGCAAUAUUACGUCCC,-3.62 ± 0.35,-1.59 ± 0.27
CCAAAGCAAUAUUACGUGCG,-0.979 ± 0.065,-0.611 ± 0.081
CCACAGCAAUAUUACGACUG,-2.92 ± 0.11,-0.694 ± 0.092
CCACAGCAAUAUUACGCAAU,-3.41 ± 0.2,-2.66 ± 0.25
CCACAGCAAUAUUACGCACU,-3.41 ± 0.1,-2.27 ± 0.12
CCACAGCAAUAUUACGCCGA,-3.67 ± 0.26,-2.26 ± 0.17
CCACAGCAAUAUUACGCCGU,-2.9 ± 0.24,-1.87 ± 0.24
CCACAGCAAUAUUACGCGGG,-3.14 ± 0.12,-2.77 ± 0.16
CCACAGCAAUAUUACGGAAG,-1.87 ± 0.098,-0.76 ± 0.1
CCACAGCAAUAUUACGGACU,-3.9 ± 0.15,-2.95 ± 0.14
CCACAGCAAUAUUACGGGGA,-3.12 ± 0.19,-2.51 ± 0.17
CCACAGCAAUAUUACGGGUA,-3.44 ± 0.21,-2.88 ± 0.18
CCACAGCAAUAUUACGGUAG,-0.799 ± 0.046,-0.163 ± 0.065
CCACAGCAAUAUUACGUCCC,-3.18 ± 0.43,-2.06 ± 0.4
CCACAGCAAUAUUACGUCGA,-2.93 ± 0.11,-1.47 ± 0.099
CCACAGCAAUAUUACGUGUA,-3.23 ± 0.096,-1.63 ± 0.069
CCACAGCAAUAUUACGUUGG,-3.83 ± 0.11,-2.51 ± 0.13
CCACAGCAAUAUUACGUUUA,-3.53 ± 0.15,-2.47 ± 0.16
CCACAGCAAUAUUACGUUUG,-1.7 ± 0.054,-0.24 ± 0.069
CCAGAGCAAUAUUACGCAGU,-3.22 ± 0.13,-3.42 ± 0.21
CCAGAGCAAUAUUACGCCCG,-2.01 ± 0.26,-1.17 ± 0.37
CCAGAGCAAUAUUACGCGUA,-1.99 ± 0.19,-4.46 ± 0.38
CCAGAGCAAUAUUACGCGUG,-0.704 ± 0.069,-0.93 ± 0.095
CCAGAGCAAUAUUACGCUAG,-3.84 ± 0.29,-2.38 ± 0.28
